Experimental data reported in paper PMC5823869.

Biological target: YAP2L/TAZ in cells
Assay: non-reducing SDS-PAGE with immunoblot; cell lysates (15 µg of transfected HEK293; 30 µg of H460 for endogenous TAZ) in SDS sample buffer without DTT, 3 min at 60 °C; blot with anti-FLAG, anti-HA or anti-TAZ; series with increasing DTT run beside

percent of the total protein that is dimer: 20 to 30%
Substance: YAP2L/TAZ in cells
